T1: rat IL-25 expressed with a C-terminal myc-myc-hexahistidine tag (rat)
T1 construct: also called Rat IL-25-MMH
T1 chain: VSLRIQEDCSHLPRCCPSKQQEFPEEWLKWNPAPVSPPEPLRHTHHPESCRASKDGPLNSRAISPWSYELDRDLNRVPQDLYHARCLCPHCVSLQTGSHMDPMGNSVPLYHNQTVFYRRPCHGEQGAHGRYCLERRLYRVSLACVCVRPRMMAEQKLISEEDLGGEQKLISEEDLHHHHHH

T2: human IL-25 expressed with a C-terminal myc-myc-hexahistidine tag (human)
T2 construct: also called hIL-25-MMH; Human IL-25-MMH
T2 chain: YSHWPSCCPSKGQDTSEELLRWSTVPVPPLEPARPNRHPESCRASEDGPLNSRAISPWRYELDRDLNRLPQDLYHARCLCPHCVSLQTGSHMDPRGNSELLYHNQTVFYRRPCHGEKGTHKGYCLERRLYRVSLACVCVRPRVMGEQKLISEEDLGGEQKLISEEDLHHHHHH

T3: monkey IL-25 expressed with a C-terminal myc-myc-hexahistidine tag (M. fascicularis (cynomolgus monkey))
T3 construct: also called Monkey IL-25-MMH; MfIL-25-MMH
T3 chain: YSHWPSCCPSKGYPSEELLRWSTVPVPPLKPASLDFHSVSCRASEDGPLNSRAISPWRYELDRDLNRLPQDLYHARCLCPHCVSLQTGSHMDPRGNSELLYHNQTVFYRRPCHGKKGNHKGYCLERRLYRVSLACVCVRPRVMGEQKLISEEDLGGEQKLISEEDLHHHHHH

T4: mouse IL-25 expressed with a C-terminal myc-myc-hexahistidine tag (mouse)
T4 chain: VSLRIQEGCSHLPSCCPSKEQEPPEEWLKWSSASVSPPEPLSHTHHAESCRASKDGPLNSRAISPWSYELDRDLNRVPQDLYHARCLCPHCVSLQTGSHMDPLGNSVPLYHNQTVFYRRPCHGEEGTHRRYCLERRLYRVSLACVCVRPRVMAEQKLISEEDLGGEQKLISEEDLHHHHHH

B1: H4H10900P (antibody, human IgG4, V domains shown)
VH: QVQLQESGPGLVRPSETLSLICTVSGGSINSYYWSWIRQPPGKGLEWIGYIYYSGSTNYNPSLKSRVTISGDTSKNQFSLKLSSVTAADTAVYYCARGVIWNYELREFDYWGQGTLVTVSS
VL: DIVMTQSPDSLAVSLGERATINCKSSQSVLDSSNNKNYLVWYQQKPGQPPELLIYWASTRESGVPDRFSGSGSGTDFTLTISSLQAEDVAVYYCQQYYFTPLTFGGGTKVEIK
notes: H4H prefix = human IgG4 Fc
B2: H4H10871P (antibody, human IgG4, V domains shown)
VH: QVQLVQSGAEVMKPGASVKVSCKSSDFAFTTYGISWVRQAPGQGLEWMGWISAYNGNTNYEQRFQGRITMTTDTSTTTVYMELRSLRSDDTAVYYCARDPDYCSSNTCSDAFDLWGQGTMVTVSS
VL: DIQMTQSPSSLSASVRDRVTITCRASQGITNYLAWYQQKPGKVPKVLIYAASTLQSGVPSRFSGSGSGTEFTLAISSLQPEDVATYFCQQYGSAPWTFGQGTKVEIK
notes: H4H prefix = human IgG4 Fc
B3: H4H10864P (antibody, human IgG4, V domains shown)
VH: QVQLQESGPGLVKPSETLSLTCTVSGGSISNYFWSWIRQPPGKGLEWIGFNYNSGSTNYNPSLKSRVTISVDTSKNQFSLKLSSVTAADTAVYYCARGYNWNYEIAWFDPWGQGTLVTVSS
VL: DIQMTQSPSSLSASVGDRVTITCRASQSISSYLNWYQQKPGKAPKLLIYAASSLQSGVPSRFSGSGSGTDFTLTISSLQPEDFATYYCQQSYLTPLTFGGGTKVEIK
notes: H4H prefix = human IgG4 Fc
B4: H4H10905P (antibody, human IgG4, V domains shown)
VH: QVQLVQSGAEVKKPGTSVKVSCKASGYTFTNYGISWVRQAPGQGLEWLGWISAYNDNTDYAQKLQARVTMTTDTFTSTAYMDLRSLRSDDTAVYYCARVPITGTTSSFDFWGQGTLVTVSS
VL: DIQMTQSPSSLSASVGDRVTISCRASQTIYSYLNWFQQKPGKAPKLLIYDASSLQSGVPSRFSGSGSGTHFTLTISSLQPEDFATYFCQQTYSTPLTFGGGTKVEIK
notes: H4H prefix = human IgG4 Fc
B5: H4H10897P (antibody, human IgG4, V domains shown)
VH: QVQLQESGPGLVKPSETLSLTCTVSGGSISDYYWSWIRQPPGKGLEWIGHIYYSGSTNHNPSLKSRVAISVDTSKNQFSLRLYSVTAADTAVYYCARDGYSSSSGFYYFGMDVWGQGTTVTVSS
VL: DIQLTQSPSFLSASVGDRVTITCWASQDINSYLAWYQQKPGKAPKLLIFAASTLQGGVPSRFSGSGSGTEFTLTISSLQPEDFATYYCQHLSSFPPTFGQGTRLEIK
notes: H4H prefix = human IgG4 Fc
B6: H4H10863P (antibody, human IgG4, V domains shown)
VH: QVQLVQSGAEVKKPGASVKVSCKASGYTFSSYGISWVRQAPGQGLEWMGWISAYNDNTQYAQKFQGRVTMTTDTSTSTAYMELRSLRSDDTAVYYCARVPLQWFGESFDHWGQGTLVTVSS
VL: DIQMTQSPSSLSASVGDRVTITCRASQDINNYLNWFQQKPGKAPKLLIFSTSSLQSGVPSRFSGSGSGTDFTLTISSLQSEDFATYYCQQTFITPLTFGGGTKVEIK
notes: H4H prefix = human IgG4 Fc

Target: T1, rat IL-25 expressed with a C-terminal …
Assay: SPR Biacore, antibody captured, 37C;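 as to 100 nM Monkey IL-25-MMH Bound (RU): biacore 4000 surface plasmon resonance biosensor measuring binding of IL-25-MMH to purified anti-IL-25 antibodies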;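 as to 100 nM Mouse IL-25-MMH Bound (RU): Real-time sensorgrams of IL-25-MMH binding to purified anti-IL-25 antibodies, rate constants obtained by fitting a 1:1 binding model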
Protocol: (§1) Equilibrium dissociation constants (KD values) for IL-25 binding to purified anti-IL-25 antibodies were determined using a real-time surface plasmon resonance biosensor assay on a Biacore 4000 instrument (GE Healthcare). […] All the IL-25 reagents were expressed with a C-terminal myc-myc-hexahistidine tag (referred to herein as “IL-25-MMH”). […] Kinetic association (kₐ) and dissociation (kd) rate constants were determined by fitting the real-time sensorgrams to a 1:1 binding model using Scrubber 2.0c curve fitting software.

100 nM Rat IL-25-MMH Bound (RU) | Kd [pM] | koff [s⁻¹] | kon [M⁻¹ s⁻¹] | t½ [h] | Binder
2 | – | – | – | – | B1
45 | 60.2 | 5.64e-05 | 937000 | 3.42 | B2
1 | – | – | – | – | B3
49 | 377 | 0.000181 | 481000 | 1.07 | B4
22 | 24600 | 0.00601 | 245000 | 0.0317 | B5
41 | 720 | 0.000341 | 474000 | 0.567 | B6

Target: T2, human IL-25 expressed with a C-terminal …
Assay: BLI Octet, hIL-25-MMH captured on anti-Penta-His sensor, 25C
Protocol: Binding competition between anti-IL-25 monoclonal antibodies was determined using a real time, label-free bio-layer interferometry assay on an Octet QK384 biosensor (Pall ForteBio Corp.).
The biosensors were washed in HBST kinetics buffer in between every step of the experiment. The real-time binding response was monitored during the course of the experiment and the binding response at the end of every step was recorded.

50 ug/mL mAb-1 Binding (nm) | Binder
0.68 | B1
1.12 | B2
0.84 | B3
1.59 | B4
1.12 | B5
1.13 | B6

Target: T3, monkey IL-25 expressed with a …
Assay: SPR Biacore, antibody captured, 37C;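 as to 100 nM Monkey IL-25-MMH Bound (RU): biacore 4000 surface plasmon resonance biosensor measuring binding of IL-25-MMH to purified anti-IL-25 antibodies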;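 as to 100 nM Mouse IL-25-MMH Bound (RU): Real-time sensorgrams of IL-25-MMH binding to purified anti-IL-25 antibodies, rate constants obtained by fitting a 1:1 binding model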
Protocol: as §1

100 nM Monkey IL-25-MMH Bound (RU) | Kd [pM] | koff [s⁻¹] | kon [M⁻¹ s⁻¹] | t½ [h] | Binder
50 | 24.4 | 7.49e-05 | 3.07e+06 | 2.57 | B1
54 | 54.6 | 7.4e-05 | 1.35e+06 | 2.6 | B2
94 | 43.6 | 0.00019 | 4.35e+06 | 1.02 | B3
59 | 135 | 9.01e-05 | 668000 | 2.13 | B4
49 | 189 | 0.000231 | 1.22e+06 | 0.833 | B5
51 | 68.5 | 8.07e-05 | 1.18e+06 | 2.38 | B6

Target: T2, human IL-25 expressed with a C-terminal …
Assay: competition ELISA, 2 nM hIL-25-MMH binding to coated hIL-17RB-hFc
Protocol: (§2) Data analysis was performed using a sigmoidal dose-response model within Prism™ software (GraphPad). […] The absorbance values of the wells containing the highest concentration for each antibody were used to determine the percent maximum blockade.

% Maximum blocking of 200 nM antibody [%] | Binder
90 | B1
92 | B2
88 | B3
86 | B4
94 | B5
87 | B6

Target: T2, human IL-25 expressed with a C-terminal …
Assay: cell-based or functional assay

IC50 values of antibodies for blocking IL-5 release from Donor #727058-059 [pM] | IC50 values of antibodies for blocking IL-5 release from Donor #727060 [pM] | Binder
39.2 | 578 | B1
118 | 636 | B2
1150 | 677 | B3

Target: T4, mouse IL-25 expressed with a C-terminal …
Assay: cell-based or functional assay

IC50, luciferase reporter cells, 10 pM mIL-25-MMH [M] | Binder
6.7e-10 | B2
6.8e-10 | B4
1.5e-08 | B5
4.3e-09 | B6

Target: T3, monkey IL-25 expressed with a …
Assay: cell-based or functional assay

IC50, luciferase reporter cells, 12 pM MfIL-25-MMH [M] | Binder
2.2e-11 | B1
8.8e-11 | B2
2.6e-11 | B3
2.1e-10 | B4
4e-10 | B5
3.5e-10 | B6

Target: T2, human IL-25 expressed with a C-terminal …
Assay: cell-based or functional assay
Remark: another data set of the same source

IC50, luciferase reporter cells, 5 pM hIL-25-MMH [M] | Binder
3.1e-11 | B1
3.2e-10 | B2
3.6e-11 | B3
5.1e-10 | B4
4.6e-10 | B5
6.9e-10 | B6

Target: T1, rat IL-25 expressed with a C-terminal …
Assay: SPR Biacore, antibody captured, 25C;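 as to 100 nM Rat IL-25-MMH Bound (RU): purified anti-IL-25 antibodies were tested by real-time surface plasmon resonance on a Biacore 4000, with rate constants obtained from sensorgram fits to a 1:1 binding model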

100 nM Rat IL-25-MMH Bound (RU) | binding result | Kd [pM] | koff [s⁻¹] | kon [M⁻¹ s⁻¹] | t½ [h] | Binder
0 | no binding (tested: 100 nM) | – | – | – | – | B1
37 | – | 132 | 7.23e-05 | 548000 | 2.67 | B2
-1 | – | – | – | – | – | B3
45 | – | 810 | 0.000135 | 167000 | 1.42 | B4
23 | – | 2420 | 0.000807 | 333000 | 0.233 | B5
34 | – | 1070 | 0.000164 | 153000 | 1.17 | B6

Target: T2, human IL-25 expressed with a C-terminal …
Assay: competition ELISA, 2 nM hIL-25-MMH binding to coated hIL-17RB-hFc; (*) below theoretical bottom of the assay
Protocol: as §2

IC50 [pM] | Binder
200 | B1
710 | B2
260 | B3
530 | B4
320 | B5
920 | B6

Target: T4, mouse IL-25 expressed with a C-terminal …
Assay: SPR Biacore, antibody captured, 25C;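 as to 100 nM Rat IL-25-MMH Bound (RU): purified anti-IL-25 antibodies were tested by real-time surface plasmon resonance on a Biacore 4000, with rate constants obtained from sensorgram fits to a 1:1 binding model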
Protocol: as §1

100 nM Mouse IL-25-MMH Bound (RU) | binding result | Kd [pM] | koff [s⁻¹] | kon [M⁻¹ s⁻¹] | t½ [h] | Binder
0 | no binding (tested: 100 nM) | – | – | – | – | B1
30 | – | 918 | 0.000111 | 121000 | 1.73 | B2
-1 | – | – | – | – | – | B3
43 | – | 1170 | 0.000145 | 124000 | 1.33 | B4
20 | – | 7050 | 0.00104 | 148000 | 0.183 | B5
22 | – | 2670 | 0.000149 | 55700 | 1.3 | B6

Target: T4, mouse IL-25 expressed with a C-terminal …
Assay: SPR Biacore, antibody captured, 37C;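 as to 100 nM Monkey IL-25-MMH Bound (RU): biacore 4000 surface plasmon resonance biosensor measuring binding of IL-25-MMH to purified anti-IL-25 antibodies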;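 as to 100 nM Mouse IL-25-MMH Bound (RU): Real-time sensorgrams of IL-25-MMH binding to purified anti-IL-25 antibodies, rate constants obtained by fitting a 1:1 binding model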

100 nM Mouse IL-25-MMH Bound (RU) | Kd [pM] | koff [s⁻¹] | kon [M⁻¹ s⁻¹] | t½ [h] | Binder
2 | – | – | – | – | B1
41 | 258 | 8.29e-05 | 322000 | 2.32 | B2
1 | – | – | – | – | B3
47 | 441 | 0.000178 | 403000 | 1.08 | B4
17 | 36200 | 0.00641 | 177000 | 0.03 | B5
37 | 1140 | 0.000153 | 134000 | 1.27 | B6

Reference: patent US20160083466A1 (Regeneron, published 2016)
